Assay results: article PMC9307952 (The Journal of Biological Chemistry, 2022)

What was measured:
[1] = target: T1, E. coli LipBK135A/C169A (catalytically inactive double mutant of lipoate protein ligase B) (E. coli, UniProt P60720 1-213, K135A | C169A); test: SPR; LipBK135A/C169A immobilised on an activated gold sensor surface (Autolab ESPRIT), increasing concentrations of ACP passed over; 20 mM sodium phosphate pH 8.0, 100 mM NaCl, 298 K; global fit of five injections, 1:1 Langmuir model; settings: both partners purified
[2] = target: T1, E. coli LipBK135A/C169A (catalytically …); test: SPR; apparent (binding curve did not reach saturation for holo-ACP); LipBK135A/C169A immobilised on an activated gold sensor surface (Autolab ESPRIT), increasing concentrations of ACP passed over; 20 mM sodium phosphate pH 8.0, 100 mM NaCl, 298 K; global fit of five injections, 1:1 Langmuir model; settings: both partners purified

Kd [1] [µM]	Kd [2] [µM]	Binder
36.4	–	E. coli C8-ACP (octanoyl-acyl carrier protein), SPR sample (natural protein, octanoyl (C8) chain on a 4'-phosphopantetheine arm (residue not stated)) STIEERVKKIIGEQLGVKQEEVTNNASFVEDLGADSLDTVELVMALEEEFDTEIPDEEAEKITTVQAAIDYINGHQA
–	2100	E. coli apo-ACP (unmodified acyl carrier protein), SPR sample (natural protein) STIEERVKKIIGEQLGVKQEEVTNNASFVEDLGADSLDTVELVMALEEEFDTEIPDEEAEKITTVQAAIDYINGHQA
–	100	E. coli holo-ACP (acyl carrier protein with 4'-phosphopantetheine), SPR sample (natural protein, 4'-phosphopantetheine arm (residue not stated)) STIEERVKKIIGEQLGVKQEEVTNNASFVEDLGADSLDTVELVMALEEEFDTEIPDEEAEKITTVQAAIDYINGHQA
